We go through four molecules from PMC11912406 (Proceedings of the National Academy of Sciences of the …, 2025).

For assay [1], the target named is IZUMO1-Fc prebound to OBF13 (IgM) (murine) (UniProt Q9D9J7). The assay is described as follows: BLI. (In general: In BLI a coated tip is dipped into the sample, and binding shifts an interference pattern.)
Assay [2] has as its target IZUMO1-Fc prebound to OBF13^HAC (scFv) (murine) (UniProt Q9D9J7). Briefly: BLI.
The target of assay [3] is recombinant murine IZUMO1-human Fc fusion protein (murine) (UniProt Q9D9J7). Briefly: BLI.
Assay [4] has as its target cell-surface, GPI-anchored hamster JUNO on HEK293F cells (hamster). The assay is described as follows: flow cytometry on cells. Background: In flow cytometry, cells or beads pass a laser one at a time.
For assay [5], the target named is cell-surface, GPI-anchored murine JUNO on HEK293F cells (murine) (UniProt Q9EQF4). Briefly: flow cytometry on cells.
Assay [6] has as its target cell-surface, GPI-anchored hamster JUNO on HEK293F cells (hamster). The assay is described as follows: flow cytometry on cells. This is another data set of the same source.
In assay [7] the target is T1, cell-surface, GPI-anchored murine JUNO on HEK293F cells (murine, UniProt Q9EQF4 20-222).
T1 sequence: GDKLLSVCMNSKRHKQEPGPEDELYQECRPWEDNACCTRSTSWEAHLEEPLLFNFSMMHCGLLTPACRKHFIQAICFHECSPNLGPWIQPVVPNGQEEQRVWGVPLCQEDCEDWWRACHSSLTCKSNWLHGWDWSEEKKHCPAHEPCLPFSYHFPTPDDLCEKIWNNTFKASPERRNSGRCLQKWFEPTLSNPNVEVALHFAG
The assay is described as follows: flow cytometry on cells.

Read-outs that look alike come from different tables or passages of the source.

With “murine JUNO ectodomain (domain or fragment)”, the results for the Kd in assay [1], in assay [2] and in assay [3] were 30.1 µM, 33.8 µM and 11 µM, respectively. The fold decrease in kon against IZUMO1 alone in assay [1] and in assay [2] was 3 fold each time.
As to “IZUMO1-Fc prebound to OBF13 (IgM) (from UniProt Q9D9J7 22-319) (complex)”, the EC50 (as a rule, the concentration giving half of the maximal effect) was 1.4 nM in assay [4] and 551 nM in assay [5].
For the molecule “hamster JUNO ectodomain (domain or fragment)”, the fold decrease in kon against IZUMO1 alone in assay [1] and in assay [2] was 2 fold each time. Moreover, in assay [3], the dissociation constant (Kd) – broadly, the concentration at which binding is half-saturated – was 0.659 µM.

B1: recombinant murine IZUMO1-human Fc fusion protein (Fc fusion)
chain: CIKCDQFVTDALKTFENTYLNDHLPHDIHKNVMRMVNHEVSSFGVVTSAEDSYLGAVDENTLEQATWSFLKDLKRITDSDLKGELFIKELLWMLRHQKDIFNNLARQFQKEVLCPNKCGVMSQTLIWCLKCEKQLHICRKSLDCGERHIEVHRSEDLVLDCLLSWHRASKGLTDYSFYRVWENSSETLIAKGKEPYLTKSMVGPEDAGNYRCVLDTINQGHATVIRYDVTVLPPKHSEENQPPNIITQEEHETPVHVTPQTPPGQEPESELYPELHPELYPELIPTVAQNPEKKMKTR
As for B1, the EC50 was found to be 0.198 nM in assay [6] and 10.7 nM in assay [7].
